# Test results reported in the nanobody polyreactivity screen of Harvey et al. (2022).
# Experiment: yeast display, Sf9 membrane polyspecificity reagent, FACS + sequencing; frameworks hold sequencing errors
# In short: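 Nanobodies came from a synthetic yeast display library in Saccharomyces cerevisiae BJ5465, induced with galactose for 36–48 hours and stained for 1 hour at 4 °C with 10% biotinylated, detergent-solubilized Sf9 membrane reagent. Cells were enriched on streptavidin microbeads and then FACS-sorted, with low and high (top ~1%) gates set on anti-HA fluorescence for expression and streptavidin fluorescence for reagent binding. Each polyreactivity label reflects the gate a clone came from. Genes were amplified by colony PCR, sequenced by MiSeq 2 × 250 and filtered by CDR length.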
row,Sequence,polyreactivity (PSR sort gate)
1,QVQLVESGGGLVQAGGSLRLSCAASGRIFSRYAMGWYRQAPGKERELVAAINKSGGSTYYADSVKGRFTISRDNAKNTVYLQMNSLKPEDTAVYYCNAVYYYGRRRYGYWGQGTQVTVSS,high polyreactivity
2,QVQLVESGGGLVQAGGSLRLSCAASGRIFSRYAMGWYRQAPGKERELVAAINKSGGSTYYADSVKGRFTISRDNEKYTVYLQMNSLKPEDTAVDYCNAVYYWYKGDYWGQGTQVTVSS,high polyreactivity
3,QVQLVESGGGLVQAGGSLRLSCAASGRIFSRYAMGWYRQAPGKERELVAAISWSGGSTYYADSVKGRFTISRDNAKNNVYLQMNSLKPEDTAVYYCAARRSYSYGSWGQGTQVTVSS,high polyreactivity
4,QVQLVESGGGLVQAGGSLRLSCAASGRIFSRYAMGWYRQAPGKERELVAVISRSGADTYYADSVKGRFTISRDNAKNTVYLQMNSLKPEDTAVFYCNAYSARRPHPMCYDSWGQGTQVTVSS,high polyreactivity
5,QVQLVESGGGLVQAGGSLRLSCAASGRIFSRYTMGWYRQAPGKERELVAAISRRGGSTNYADSVKGRFTISRDNAKNTVYLQMNSLKPEDTAVYYCAAHGPFVRSQSLRSGRFDYWGQGTQVTVSS,high polyreactivity
6,QVQLVESGGGLVQAGGSLRLSCAASGRIFSRYTMGWYRQAPGKERELVAAISYRGGSTYYADSVKGRFTISRDNAKNTVYLQMNSLKPEDTAVYYCAARVQAIYRYDYWGQGTQVTVSS,high polyreactivity
7,QVQLVESGGGLVQAGGSLRLSCAASGRIFSRYVMGWYRQAPGKERELVAAITRNGGNTYYADSVTGRFTISRDNAKNTVYLQMNSLKPEDTAVYYCAGRAVLKSWAYYYWGQGTQVTVSS,high polyreactivity
8,QVQLVESGGGLVQAGGSLRLSCAASGRIFSSKAMGWYRQAPGKERELVAAISWIVGRTYYADSVKGRFTISRDNAKNTVYLQMNSLIPEATAVYYCAKGSYYVRNRGWGYDYWGQGTQVTVSS,high polyreactivity
9,QVQLVESGGGLVQAGGSLRLSCAASGRIFSSNAMGWYRQAPGKERELVASINRGDRTYYADSVKGRFTISRDNAKNTVYLQMNSLKPEDTAVYYCAAARTYGKKYGYWGQGTQVTVSS,high polyreactivity
10,QVQLVESGGGLVQAGGSLRLSCAASGRIFSSYAMGWYRQAPGKERELVAAIRYDAGSTYYADSVKGRFTISRDHAKNTVYLQMNSLKPEDTAVYYCAARIYFEQWSWYGYWGQGTQVTVSS,high polyreactivity
11,QVQLVESGGGLVQAGGSLRLSCAASGRIFSSYTMGWYRQAPGKERELVATITLRGGRTYYADSVKGRFTISRDNAKNTVYLQMNSLKPEDTAVYYCAATYLTYYHRFNYWGQGTQVTVSS,high polyreactivity
12,QVQLVESGGGLVQAGGSLRLSCAASGRIFSTNAMGWYRQAPAKERELVAAITRGVSTKYADSVKRRFTISRDNAKNTVYLQMNSLKPEDTAVYYCAASVVWGPESDYWGQGTQVTVSS,low polyreactivity
13,QVQLVESGGGLVQAGGSLRLSCAASGRIFSTYTMGWYRQAPGKERELVAAIRANGGSTYYADSVKGRFTISRDNAKNTVYLQMNSLKPEVTAVYYCNARRPIGTGYYWGQGTQVTVSS,high polyreactivity
14,QVQLVESGGGLVQAGGSLRLSCAASGRIFSTYVMGCYRQAPGKERELVAAITRGGSTNYADSVKGRFTISRDNAKNTVYLQMNSLKPEDTAVYYCNAQRRGTYYLGQGTQVTVSS,high polyreactivity
15,QVQLVESGGGLVQAGGSLRLSCAASGRIFSTYVMGWYRQAPGKERELVAAIRNRGGSTYYADSVKGRFTISRDNAKNTVYLQMNSLKPEDTAVFYCAAEYSYRYRVSMDYWGQGTQVTVSS,high polyreactivity
16,QVQLVESGGGLVQAGGSLRLSCAASGRIFSTYVMGWYRQAPGKERELVAAITWSGGSTYYADSVKGRFTISRDTAQNTVYLQMNTLKPEDTAVYYCAADEIYGYDYWGQGTQVTVSS,high polyreactivity

row,Sequence,polyreactivity (PSR sort gate)
1,QVQLVESGGGLVQAGGSLRLSCAASGRIFSVNAMGWYRQAPGKERELVAAITPGASTNYADSVKGRFTISRDNAKNTVYLQMNSLKPEDTAVYYCAAGWVSFEDWVLGSYYEYDYWGQGTQVTVSS,low polyreactivity
2,QVQLVESGGGLVQAGGSLRLSCAASGRIFSVNAMGWYRQAPGKERELVAAITSGGRTNYADSVKGRFTISRDNAKNTFYLQMNSLKPEDTAVYYCAAPYLKGGEDDYWGQGTQVTVSS,high polyreactivity
3,QVQLVESGGGLVQAGGSLRLSCAASGRIFSVYAMGWYRQAPGKEREFVASISWRGGRTYYADSVKGRFTISRDNAKNTVYLQMNSLKPEDTAVYYCAAVSYPAVYGFDYWGQGTQVTVSS,high polyreactivity
4,QVQLVESGGGLVQAGGSLRLSCAASGRIFSVYAMGWYRQAPGKERELVAAITNGGRTNYADSVKGRFTISRDNAKNTVYLQMNSLKPEDTAVYYCATDPVKSGYQRYYYWGQGTQVTVSS,low polyreactivity
5,QVQLVESGGGLVQAGGSLRLSCAASGRIFSVYDMGWYRQAPGKERELVAAIDTSDGSTNYADSVTGRFTISRDNAKNTVYLQMNSLKPEDTAVYYCNATDSYVPFDYWGQGTQVTVSS,low polyreactivity
6,QVQLVESGGGLVQAGGSLRLSCAASGRIFSVYDMGWYRQAPGKERELVAAISWSGGTTYYADSVKGRFTISRDNAKNTVYLQMNSLKPEDTAVYYCAARSRSRYDYWGQGTQVTVSS,high polyreactivity
7,QVQLVESGGGLVQAGGSLRLSCAASGRIFSVYTMGWYRKAPGKERELVATISSGGRTNYADSVKGRFTISRDNAKNTVYLQMNSLKPEDTAVYYCAAVPYGFVGYDDYWGQGTQVTVSS,low polyreactivity
8,QVQLVESGGGLVQAGGSLRLSCAASGRIFSVYTMGWYRQAPGKERELVAAISSGASTNYADSVKGRFTISRDNAKNTVYLQMNSLKPEDTAVYYCAKVLTNFNLYYYWGQGTQVTVSS,low polyreactivity
9,QVQLVESGGGLVQAGGSLRLSCAASGRIFSVYTMGWYRQAPGKERELVATISSGGRTNYADSVKGRFTISRDNAKNTVYLQLNSLKPEDTAVYYCNADYFGQESWWMDYWGQGTQVTVSS,low polyreactivity
10,QVQLVESGGGLVQAGGSLRLSCAASGRIFSYNAMGWYRPAPGKEREIVAGITKSGDDTFYADSVKGRFTISRDNAKNTVYLQMNSLKPQDTAVYYCAAASNPRYYTNRMVYWGQGTQVTVSS,low polyreactivity
11,QVQLVESGGGLVQAGGSLRLSCAASGRIFSYNTVMGWYRQAPGKERELVAAITYSSASTYYADSVKGRFTISRDNAKNTVYLQMNSLKPEDTAVYYCAADAYTPGYRGDYWGQGTQVTVSS,low polyreactivity
12,QVQLVESGGGLVQAGGSLRLSCAASGRIFSYYAMGWYRQAPGKERELVAAISRTGGRTYYADSVKGRFTISRDNAKNTVYLQMNSLKPEDTAVYYCNVVGRRYWHWDQALDYWGQGTQVTVSS,high polyreactivity
13,QVQLVESGGGLVQAGGSLRLSCAASGRIFSYYAMGWYRQAPGKERELVAAITKSGGSTFYADSVKGRFTISRDNAKNTVYLQMNSLKPEDTAVYYCAAEVTLEDWGYSWKYDYLGQGTQVTVSS,high polyreactivity
14,QVQLVESGGGLVQAGGSLRLSCAASGRIFSYYAMGWYRQAPGKERELVAAITRRDGRTYYADSVKGRFTISRDNAKNTVYLQMNSLKPEDTAVYYCAAYLAASYDWGQGTQVTVSS,low polyreactivity
15,QVQLVESGGGLVQAGGSLRLSCAASGRIFSYYAMGWYRQAPGKERELVATISGSGGSTYYADSVKGRFTISRDNAKNTVYLQMNSLKPEDTAVYYCAATGFIFRGRVRAIPRRYNYWGQGTQVTVSS,high polyreactivity
16,QVQLVESGGGLVQAGGSLRLSCAASGRIFSYYAMRWFRQAPGKERELVAAISSGGSTNYADSVKGRFTISRDNAKNTVYLQMNSLKPEDTAVYYCNAVRGWTTRYDYWGQGTQVTVSS,high polyreactivity
